Test [1] deals with Nedd8 (endogenous protein of 293T cells) (human, UniProt Q15843 1-76). The experiment in a line: anti-Nedd8 immunoblot of anti-HA immune complexes from 293T cells, non-reducing SDS-PAGE. (In general: A western blot detects proteins with antibodies after separation by electrophoresis.)
For test [2], the target named is ubiquitin (endogenous protein of 293T cells) (human, UniProt P0CG48 1-76). The test can be described thus: LC/MS/MS (LTQ-Orbitrap) of Flag-HA-Uba6˜Ub purified from mammalian cells.

Substitutions are numbered along the chain they refer to. Names and notes keep the numbering of the source.

Sequence of Nedd8 (endogenous protein of 293T cells) (Q15843 1-76 limits assumed): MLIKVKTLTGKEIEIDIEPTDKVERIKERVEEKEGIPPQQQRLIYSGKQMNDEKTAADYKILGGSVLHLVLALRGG

B1: Flag-HA-Uba6^C625S (enzyme)
chain: MEGSEPVAAHQGEKASCSSWGTGSTNKNLPIMSTASVEIDDALYSRQRYVLGDTAMQKMAKSHVFLSGMGGLGLEIAKNLVLAGIKAVTIHDTEKCQAWDLGTNFFLSEDDVVNKRNRAEAVLKHIAELNPYVHVTSSSAPFNETTDLSFLDKYQCVVLTEMKLPLQKKINDFCRSQCPPIKFISADVHGIWSRLFCDFGDEFEVLDTTGEEPKEIFISNITQTNPGIVTCLENHPHKLETGQFLTFREINGMTGLNGSIQQITVISPFSFSIGDTTELEPYLHGGIAVQVKTPKTVFFESLERQLKHPKCLIVDFSNPEAPLEIHTAMLALDQFQEKYSRKPNVGCQQDSEELLKLATSISETLEEKPDVNADIVHWLSWTAQGFLSPLAAAVGGVASQEVLKAVTGKFSPLCQWLYLEAADIVESLGKPECEEFLPRGDRYDALRACIGDTLCQKLQNLNIFLVGCGAIGCEMLKNFALLGVGTSKEKGMITVTDPDLIEKSNLNRQFLFRPHHIQKPKSYTAADATLKINSQIKIDAHLNKVCPTTETIYNDEFYTKQDVIITALDNVEARRYVDSRCLANLRPLLDSGTMGTKGHTEVIVPHLTESYNSHRDPPEEEIPFSTLKSFPAAIEHTIQWARDKFESSFSHKPSLFNKFWQTYSSAEEVLQKIQSGHSLEGCFQVIKLLSRRPRNWSQCVELARLKFEKYFNHKALQLLHCFPLDIRLKDGSLFWQSPKRPPSPIKFDLNEPLHLSFLQNAAKLYATVYCIPFAEEDLSADALLNILSEVKIQEFKPSNKVVQTDETARKPDHVPISSEDERNAIFQLEKAILSNEATKSDLQMAVLSFEKDDDHNGHIDFITAASNPRAKMYSIEPADRFKTKRIAGKIIPAIATTTATVSGLVALEMIKVTGGYPFEAYKNCFLNLAIPIVVFTETTEVRKTKIRNGISFTIWDRWTVHGKEDFTLLDFINAVKEKYGIEPTMVVQGVKMLYVPVMPGHAKRLKLTMHKLVKPTTEKKYVDLTVSFAPDIDGDEDLPGPPVRYYFSHDTD
notes: Catalytic cysteine changed to serine; also called C625S mutant; Flag-HA-Ub6^C625S; not shown: N-terminal Flag-HA tag
Take B1: the binding result in test [1] was “no binding”.

B2: Flag-HA-Uba6 (enzyme)
chain: B1 chain with S625C
notes: also called HA-Flag-Uba6; wild-type Uba6 with N-terminal Flag-HA tag; not shown: N-terminal Flag-HA tag
As to B2, the binding result in test [2] is recorded as “binds”.

Values taken from patent publication US20100047255A1 (Harvard, published 2010).
